The target in assay [1] is tevBAK (residues 22–186) (human) (UniProt Q16611). As to the kind of experiment: ITC; 250 or 500 µM BID BH3 peptide injected into 20 or 50 µM tevBAK; 25 °C; 20 mM HEPES, 100 mM NaCl, 1 mM TCEP; single site binding model. For orientation: ITC needs no label: the signal is the heat of the interaction.
Assay [2] concerns the target T1, Human BAK-∆TM-His6 (human).
T1 sequence (Q16611 whole entry, looked up): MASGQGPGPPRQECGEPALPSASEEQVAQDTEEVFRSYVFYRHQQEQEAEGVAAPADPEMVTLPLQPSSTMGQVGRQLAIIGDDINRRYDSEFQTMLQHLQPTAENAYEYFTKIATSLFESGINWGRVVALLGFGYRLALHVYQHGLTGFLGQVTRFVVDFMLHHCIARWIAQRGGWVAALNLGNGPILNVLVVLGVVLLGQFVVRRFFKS
The assay is described as follows: SPR; MEAS-BAK-His6 captured (~500 RU) on Ni2+-charged NTA HisCap chip, peptides injected; 20 °C; 20 mM HEPES pH 8.0, 200 mM NaCl, 1 mM TCEP, 0.01% Tween20; 1:1 interaction model. On the technique in general: In SPR one partner is held on a chip, and binding of the other changes the refractive index at the surface.

For assay [3], the target named is T2, MEAS-BAK-His6 (C-terminus truncated recombinant human BAK containing C-terminal 6x histidine tag) (human) (UniProt Q16611).
T2 sequence: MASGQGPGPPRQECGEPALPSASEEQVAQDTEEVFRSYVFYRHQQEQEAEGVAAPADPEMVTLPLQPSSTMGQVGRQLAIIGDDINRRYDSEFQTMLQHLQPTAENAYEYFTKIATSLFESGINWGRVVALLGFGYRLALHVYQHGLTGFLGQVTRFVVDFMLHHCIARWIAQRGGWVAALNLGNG
As to the kind of experiment: SPR; MEAS-BAK-His6 captured (~500 RU) on Ni-NTA HisCap chip, peptides injected; 20 °C; 20 mM HEPES pH 8.0, 200 mM NaCl, 1 mM TCEP, 0.01% Tween20; 1:1 interaction model.

The target of assay [4] is T2, MEAS-BAK-His6 (C-terminus truncated recombinant human BAK containing C-terminal 6x histidine tag) (human). The assay is described as above. This is another data set of the same source.
Assay [5] addresses GST-BAK (human). As to the kind of experiment: fluorescence polarisation; competitive: displacement of 10 nM BID BH3 SAHB-F from 1 µM GST-BAK by peptides at 500-0.2 µM; 50 mM Tris-HCl pH 7.5, 50 mM KCl, 0.1 mg/mL BSA, 2 mM DTT, 0.005% Tween-20; 60 min at RT. For orientation: Polarisation of emitted light reports the rotation of a fluorescent probe.
Assay [6] deals with T2, MEAS-BAK-His6 (C-terminus truncated recombinant human BAK containing C-terminal 6x histidine tag) (human).

Like-named read-outs stand apart in the source and are kept apart here.

The values below come from article PMC8752837, “Structural basis of BAK activation in mitochondrial apoptosis initiation” (Nature Communications, 2022).

For the substance M(3)W(5) BID-like BH3 peptide, the fold higher affinity than WT BID BH3 in assay [1] and in assay [2] was 30 fold in each case.
Regarding W(3)W(5) BID BH3 peptide, in assay [3], the dissociation constant (Kd) stood at 0.336 µM, the koff came to 0.0241 s⁻¹ and the kon amounted to 71900 M⁻¹ s⁻¹. Moreover, the kon in assay [4] was 79100 M⁻¹ s⁻¹.
In turn, Y(3) BID BH3 peptide had a concentration for half-maximal inhibition (IC50) in assay [5] of 6.2 µM.
On the same count and under the same terms, under Y(4) BID BH3 peptide stands 6.9 µM.
Regarding WT BID BH3 peptide, the Supplementary Table 1: liposome permeabilization EC50 (peptide dose against AUC, 50 nM BAK; data of Supplementary Figure 7c) in assay [6] turned out to be 0.059 µM. For the same substance, in assay [3], the Kd came out at 62.3 µM, the koff is 0.261 s⁻¹ and the kon is 4190 M⁻¹ s⁻¹.

Usually Kd stands for the constant that tells how readily two partners part at equilibrium. Broadly, the koff is a measure of how fast the partners let go of each other. A word on the kon: it is the second-order rate constant of association. Broadly, the IC50 is the concentration that inhibits the measured activity by half. The low end stands for greater potency, the high end for weaker potency.
